Measured values as given in paper PMC11425952, “Characterization of Mycobacterium smegmatis Glutaminase-Free Asparaginase (MSMEG_3173)” (ACS Omega, 2024).

Test system: NC(=O)C[C@H](N)C(=O)O
Assay: purified protein
Format: biochemical, Mycolicibacterium smegmatis
Conditions: 50 mM Tris-HCl pH 8.6, 37 °C (standard assay), 0.05-4.0 mM L-Asn

## MsA (Mycobacterium smegmatis L-asparaginase, MSMEG_3173) (Mycolicibacterium smegmatis MC2 155)
  Km: 1.403 ± 0.24 mM
  kcat: 708.1 ± 25.05 s⁻¹
